Assay results reported in US20060140858A1, “Drug pre-targeting by means of bi-specific antibodies and hapten constructs comprising a carrier peptide and the active agent(s)” (Immunomedics, Inc., priority 2002, published 2006).
Marks after values point to notes of the source that are not given here.

How the values were obtained:
[1] = In-vivo stability and clearance of IMP 224; parameters: species or system mouse
Method: Kits were reconstituted with 4 mCi In-111 in 0.5 mL water. The In-111 kit was incubated at room temperature for 10 min and then diluted with 0.5 mL of the cold indium containing 0.5 M pH 7.2 acetate buffer.

GW-39 tumor xenografts = experiment: Pretargeting: I-125 F6 × 734-F(ab′)2, 72 h later In-111-IMP-224, biodistribution
[2] = Biodistribution of In-111 IMP 224 in BALB/c mice; format: in vivo
Method: Kits were reconstituted with 400 μCi In-111 in 0.5 mL water.

[3] = In-vitro stability of In/In-111 IMP 224, reverse phase HPLC; format: physicochemical
Method: Aliquots (0.15 mL, 370 μCi) were withdrawn and mixed with 0.9 mL 0.5 M citrate buffer pH 4.0, 0.9mL 0.5 M citrate buffer pH 5.0, and 0.9 mL 0.5 M phosphate buffer pH 7.5. The stability of the labeled peptide was followed by reverse phase HPLC. HPLC Conditions: Waters Radial-Pak C-18 Nova-Pak 8×100 mm, Flow Rate 3 mL/min, Gradient: 100% A=0.3.% NH4OAc to 100% B=90% CH3CN, 0.3% NH4OAc over 10 min.

## COc1cccc2c1C(=O)c1c(O)c3c(c(O)c1C2=O)C[C@@](O)(C(CO)=NNc1ccc(C(=O)N[C@@H](CCCCNC(=O)CN(CCN(CCN(CC(=O)O)CC(=O)O)CC(=O)O)CC(=O)O)C(=O)N[C@@H](Cc2ccc(O)cc2)C(=O)N[C@@H](CCCCNC(=O)CN(CCN(CCN(CC(=O)O)CC(=O)O)CC(=O)O)CC(=O)O)C(N)=O)cc1)C[C@@H]3O[C@H]1C[C@H](N)[C@H](O)[C@H](C)O1 [IMP 224, Dox = N—NH—C6H4—CO-Lys(DTPA)-Tyr-Lys(DTPA)-NH2]
[1]; Serum, 30 min, Animal #1
  Activity Recovered: 1.92 µCi
[1]; Serum, 30 min, Animal #2
  Activity Recovered: 3.64 µCi
[1]; Serum, 1 hr, Animal #1
  Activity Recovered: 1.21 µCi
[1]; Serum, 1 hr, Animal #2
  Activity Recovered: 1.27 µCi
[1]; Urine, 30 min, Animal #1
  Activity Recovered: 220 µCi
[1]; Urine, 30 min, Animal #2
  Activity Recovered: 133 µCi
[1]; Urine, 1 hr, Animal #1
  Activity Recovered: 41.1 µCi
[1]; Urine, 1 hr, Animal #2
  Activity Recovered: 273 µCi
[1]; mouse, urine, 400 uCi, read-out: renal excretion
  dose excreted: ~100%
[1]; urine
  integrity of excreted peptide (reverse phase HPLC): excreted intact in the urine
[1]; urine, 30 min and 1 hr
  antibody binding of urine activity (size exclusion HPLC): could still bind to the antibody
GW-39 tumor xenografts; GW-39, 1 h
  % ID/g tissue: 10.3 ± 1.7 % ID/g
GW-39 tumor xenografts; GW-39, 4 h
  % ID/g tissue: 11.0 ± 2.0 % ID/g
GW-39 tumor xenografts; GW-39, 24 h
  % ID/g tissue: 9.7 ± 1.1 % ID/g
GW-39 tumor xenografts; Liver, 1 h
  % ID/g tissue: 0.4 ± 0.1 % ID/g
GW-39 tumor xenografts; Liver, 4 h
  % ID/g tissue: 0.3 ± 0.0 % ID/g
GW-39 tumor xenografts; Liver, 24 h
  % ID/g tissue: 0.3 ± 0.0 % ID/g
GW-39 tumor xenografts; Muscle, 4 h
  % ID/g tissue: 0.0 ± 0.0 % ID/g
GW-39 tumor xenografts; Muscle, 24 h
  % ID/g tissue: 0.0 ± 0.0 % ID/g
GW-39 tumor xenografts; Small Int., 1 h
  tumor-to-normal organ ratio: 31.9 ± 18
GW-39 tumor xenografts; Spleen, 1 h
  % ID/g tissue: 0.4 ± 0.1 % ID/g
GW-39 tumor xenografts; Spleen, 4 h
  % ID/g tissue: 0.2 ± 0.0 % ID/g
GW-39 tumor xenografts; Spleen, 24 h
  % ID/g tissue: 0.2 ± 0.0 % ID/g
GW-39 tumor xenografts; Tail, 1 h
  % ID/g tissue: 1.1 ± 0.2 % ID/g
GW-39 tumor xenografts; Tail, 4 h
  % ID/g tissue: 0.4 ± 0.1 % ID/g
GW-39 tumor xenografts; Tail, 24 h
  % ID/g tissue: 0.2 ± 0.0 % ID/g
GW-39 tumor xenografts; Urine, 1 h
  % ID/g tissue: 168 ± 106 % ID/g
GW-39 tumor xenografts; Urine, 4 h
  % ID/g tissue: 31.8 ± 31 % ID/g
GW-39 tumor xenografts; Urine, 24 h
  % ID/g tissue: 1.2 ± 0.2 % ID/g
[2]; BALB/c, mouse, 20 uCi, total radioactivity, Blood, 30 min
  tissue uptake at 0.5 h: 1.44 ± 0.28 %ID/g
[2]; BALB/c, mouse, 20 uCi, total radioactivity, Blood, 1 hr
  tissue uptake at 1 h: 0.54 ± 0.12 %ID/g
[2]; BALB/c, mouse, 20 uCi, total radioactivity, Blood, 2 hr
  tissue uptake at 2 h: 0.12 ± 0.01 %ID/g
[2]; BALB/c, mouse, 20 uCi, total radioactivity, Blood, 4 hr
  tissue uptake at 4 h: 0.1 ± 0.01 %ID/g
[2]; BALB/c, mouse, 20 uCi, total radioactivity, Blood, 24 hr
  tissue uptake at 24 h: 0.02 %ID/g
[2]; BALB/c, mouse, 20 uCi, total radioactivity, Kidney, 30 min
  tissue uptake at 0.5 h: 8.45 ± 1.79 %ID/g
[2]; BALB/c, mouse, 20 uCi, total radioactivity, Kidney, 1 hr
  tissue uptake at 1 h: 5.36 ± 1.01 %ID/g
[2]; BALB/c, mouse, 20 uCi, total radioactivity, Kidney, 2 hr
  tissue uptake at 2 h: 3.75 ± 0.52 %ID/g
[2]; BALB/c, mouse, 20 uCi, total radioactivity, Kidney, 4 hr
  tissue uptake at 4 h: 4.03 ± 0.45 %ID/g
[2]; BALB/c, mouse, 20 uCi, total radioactivity, Kidney, 24 hr
  tissue uptake at 24 h: 2.12 ± 0.17 %ID/g
[2]; BALB/c, mouse, 20 uCi, total radioactivity, Liver, 30 min
  tissue uptake at 0.5 h: 0.57 ± 0.04 %ID/g
[2]; BALB/c, mouse, 20 uCi, total radioactivity, Liver, 1 hr
  tissue uptake at 1 h: 0.31 ± 0.03 %ID/g
[2]; BALB/c, mouse, 20 uCi, total radioactivity, Liver, 2 hr
  tissue uptake at 2 h: 0.17 ± 0.03 %ID/g
[2]; BALB/c, mouse, 20 uCi, total radioactivity, Liver, 4 hr
  tissue uptake at 4 h: 0.17 ± 0.01 %ID/g
[2]; BALB/c, mouse, 20 uCi, total radioactivity, Liver, 24 hr
  tissue uptake at 24 h: 0.13 ± 0.02 %ID/g
[2]; BALB/c, mouse, 20 uCi, total radioactivity, Lungs, 30 min
  tissue uptake at 0.5 h: 1.61 ± 0.34 %ID/g
[2]; BALB/c, mouse, 20 uCi, total radioactivity, Lungs, 1 hr
  tissue uptake at 1 h: 0.99 ± 0.26 %ID/g
[2]; BALB/c, mouse, 20 uCi, total radioactivity, Lungs, 2 hr
  tissue uptake at 2 h: 0.25 ± 0.02 %ID/g
[2]; BALB/c, mouse, 20 uCi, total radioactivity, Lungs, 4 hr
  tissue uptake at 4 h: 0.17 ± 0.02 %ID/g
[2]; BALB/c, mouse, 20 uCi, total radioactivity, Lungs, 24 hr
  tissue uptake at 24 h: 0.09 ± 0.02 %ID/g
[2]; BALB/c, mouse, 20 uCi, total radioactivity, Muscle, 30 min
  tissue uptake at 0.5 h: 0.51 ± 0.19 %ID/g
[2]; BALB/c, mouse, 20 uCi, total radioactivity, Muscle, 1 hr
  tissue uptake at 1 h: 0.21 ± 0.08 %ID/g
[2]; BALB/c, mouse, 20 uCi, total radioactivity, Muscle, 2 hr
  tissue uptake at 2 h: 0.03 ± 0.02 %ID/g
[2]; BALB/c, mouse, 20 uCi, total radioactivity, Muscle, 4 hr
  tissue uptake at 4 h: 0.02 %ID/g
[2]; BALB/c, mouse, 20 uCi, total radioactivity, Muscle, 24 hr
  tissue uptake at 24 h: 0.01 %ID/g
[2]; BALB/c, mouse, 20 uCi, total radioactivity, Spleen, 30 min
  tissue uptake at 0.5 h: 0.57 ± 0.18 %ID/g
[2]; BALB/c, mouse, 20 uCi, total radioactivity, Spleen, 1 hr
  tissue uptake at 1 h: 0.27 ± 0.06 %ID/g
[2]; BALB/c, mouse, 20 uCi, total radioactivity, Spleen, 2 hr
  tissue uptake at 2 h: 0.12 ± 0.01 %ID/g
[2]; BALB/c, mouse, 20 uCi, total radioactivity, Spleen, 4 hr
  tissue uptake at 4 h: 0.11 ± 0.01 %ID/g
[2]; BALB/c, mouse, 20 uCi, total radioactivity, Spleen, 24 hr
  tissue uptake at 24 h: 0.07 %ID/g
[2]; BALB/c, mouse, 20 uCi, total radioactivity, Stomach, 30 min
  tissue uptake at 0.5 h: 0.61 ± 0.07 %ID/g
[2]; BALB/c, mouse, 20 uCi, total radioactivity, Stomach, 1 hr
  tissue uptake at 1 h: 0.15 ± 0.07 %ID/g
[2]; BALB/c, mouse, 20 uCi, total radioactivity, Stomach, 2 hr
  tissue uptake at 2 h: 0.05 ± 0.01 %ID/g
[2]; BALB/c, mouse, 20 uCi, total radioactivity, Stomach, 4 hr
  tissue uptake at 4 h: 0.06 ± 0.02 %ID/g
[2]; BALB/c, mouse, 20 uCi, total radioactivity, Stomach, 24 hr
  tissue uptake at 24 h: 0.04 ± 0.02 %ID/g
[2]; BALB/c, mouse, 20 uCi, total radioactivity, Tail, 30 min
  tissue uptake at 0.5 h: 3.66 ± 0.43 %ID/g
[2]; BALB/c, mouse, 20 uCi, total radioactivity, Tail, 1 hr
  tissue uptake at 1 h: 1.9 ± 0.09 %ID/g
[2]; BALB/c, mouse, 20 uCi, total radioactivity, Tail, 2 hr
  tissue uptake at 2 h: 0.46 ± 0.09 %ID/g
[2]; BALB/c, mouse, 20 uCi, total radioactivity, Tail, 4 hr
  tissue uptake at 4 h: 0.24 ± 0.03 %ID/g
[2]; BALB/c, mouse, 20 uCi, total radioactivity, Tail, 24 hr
  tissue uptake at 24 h: 0.58 ± 0.22 %ID/g
[2]; BALB/c, mouse, 20 uCi, total radioactivity, Urine, 2 hr
  excreta dose per gram or mL at 2 h: 19.1 %ID/g
[2]; BALB/c, mouse, 20 uCi, total radioactivity, Urine, 4 hr
  excreta dose per gram or mL at 4 h: 1.72 ± 0.67 %ID/g
[2]; BALB/c, mouse, 20 uCi, total radioactivity, Urine, 24 hr
  excreta dose per gram or mL at 24 h: 0.42 ± 0.18 %ID/g
[2]; BALB/c, mouse, large intestine, 20 uCi, total radioactivity, Large Int., 30 min
  tissue uptake at 0.5 h: 0.59 ± 0.43 %ID/g
[2]; BALB/c, mouse, large intestine, 20 uCi, total radioactivity, Large Int., 1 hr
  tissue uptake at 1 h: 0.18 ± 0.04 %ID/g
[2]; BALB/c, mouse, large intestine, 20 uCi, total radioactivity, Large Int., 2 hr
  tissue uptake at 2 h: 0.38 ± 0.15 %ID/g
[2]; BALB/c, mouse, large intestine, 20 uCi, total radioactivity, Large Int., 4 hr
  tissue uptake at 4 h: 0.3 ± 0.06 %ID/g
[2]; BALB/c, mouse, large intestine, 20 uCi, total radioactivity, Large Int., 24 hr
  tissue uptake at 24 h: 0.08 ± 0.03 %ID/g
[2]; BALB/c, mouse, small intestine, 20 uCi, total radioactivity, Small Int., 30 min
  tissue uptake at 0.5 h: 0.72 ± 0.08 %ID/g
[2]; BALB/c, mouse, small intestine, 20 uCi, total radioactivity, Small Int., 1 hr
  tissue uptake at 1 h: 0.37 ± 0.19 %ID/g
[2]; BALB/c, mouse, small intestine, 20 uCi, total radioactivity, Small Int., 2 hr
  tissue uptake at 2 h: 0.09 ± 0.01 %ID/g
[2]; BALB/c, mouse, small intestine, 20 uCi, total radioactivity, Small Int., 4 hr
  tissue uptake at 4 h: 0.09 ± 0.03 %ID/g
[2]; BALB/c, mouse, small intestine, 20 uCi, total radioactivity, Small Int., 24 hr
  tissue uptake at 24 h: 0.05 ± 0.01 %ID/g
[2]; Urine, 30 min
  % ID/g: 1553 % ID/g
[2]; Urine, 1 hr
  % ID/g: 1400 ± 421 % ID/g
[3]; Kit, time cell empty (first line)
  Intact Peptide: 00
[3]; Kit, time printed '1 hr'
  Intact Peptide: 9
[3]; pH 4.0, time printed '4 min'
  Intact Peptide: 00
[3]; pH 4.0, time printed '9 hr'
  Intact Peptide: 5
[3]; pH 4.0, time printed 'hr', some peptide decomposed but not included in peak areas
  Intact Peptide: 00*
[3]; pH 5.0, time printed '0 min'
  Intact Peptide: 00
[3]; pH 5.0, time printed '0 hr'
  Intact Peptide: 1
[3]; pH 5.0, time printed 'hr', some peptide decomposed but not included in peak areas
  Intact Peptide: 00*
[3]; pH 7.5, time printed '0 hr'
  Intact Peptide: 0
[3]; pH 7.5, time printed '.5 hr' (first line)
  Intact Peptide: 00
[3]; pH 7.5, time printed '.5 hr' (second line)
  Intact Peptide: 4
